Experimental data taken from publication PMC9658050.
Several values for one entry are separate records, joined by “and”; a condition that tells them apart may be missing. Equal values may be shown once.

Assays:
[1] = target: Full-length SARS-CoV-2 envelope (E) protein (SARS-CoV-2) (UniProt P0DTC4); assay: AUC
[2] = target: His-tagged truncated SARS-CoV-2 E protein (residues 8-65) (SARS-CoV-2) (UniProt P0DTC4); assay: AUC

| Substance | Log10 Ka (monomers to pentamer) [1] | percent of the sample as pentamers [1] [%] | stoichiometry N [1] | Log10 Ka (monomers to pentamer) [2] | percent of the sample as trimers [2] [%] | stoichiometry N [2] |
| --- | --- | --- | --- | --- | --- | --- |
| Full-length SARS-CoV-2 envelope (E) protein (from UniProt P0DTC4 1-75) (natural protein) | 17.4 | 80 | 3 and 5 |  |  |  |
| His-tagged truncated SARS-CoV-2 E protein (residues 8-65) (from UniProt P0DTC4 8-65) (domain or fragment) |  |  |  | 16 | 60 | 3 |
